Assay results from article PMC2764403 (Biochemistry, 2009).
Blank lines part the entries; values can stand above or below the molecule they belong to.

Assays:
Experiment in all cases: AUC
[1] = molecular target: βB1ΔN56, murine βB1-crystallin with N-terminal residues 1-56 deleted (murine)
[2] = molecular target: human βA3-crystallin (human) (UniProt P05813)
[3] = molecular target: βB1ΔN47, tryptic product of murine βB1-crystallin (residues 1-47 removed) (murine)
murine βB1-crystallin = molecular target: T1, murine βB1-crystallin (murine, UniProt Q9WVJ5 1-250)
T1 sequence (looked up): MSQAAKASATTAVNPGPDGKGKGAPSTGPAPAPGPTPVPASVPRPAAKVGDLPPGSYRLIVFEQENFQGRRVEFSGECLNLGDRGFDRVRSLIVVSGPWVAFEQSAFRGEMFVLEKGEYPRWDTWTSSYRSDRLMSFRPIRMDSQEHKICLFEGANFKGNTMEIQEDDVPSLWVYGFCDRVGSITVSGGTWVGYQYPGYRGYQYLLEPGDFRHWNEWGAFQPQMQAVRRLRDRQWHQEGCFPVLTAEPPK

AUC = molecular target: the molecule itself

stoichiometry N [1]: 4
Molecule: βB1ΔN56, murine βB1-crystallin with N-terminal residues 1-56 deleted (domain or fragment)

Kd [2]: 200 nM
Kd [3]: 1400 nM
stoichiometry N [3]: 2
Molecule: βB1ΔN47, tryptic product of murine βB1-crystallin (residues 1-47 removed) (domain or fragment)

Kd (murine βB1-crystallin): 5000 nM
B1: βA3ΔN30, human βA3-crystallin with N-terminal residues 1-30 deleted and residue 31 replaced by glycine (domain or fragment, UniProt P05813-1 31-215, looked up)
chain: GKITIYDQENFQGKRMEFTSSCPNVSERSFDNVRSLKVESGAWIGYEHTSFCGQQFILERGEYPRWDAWSGSNAYHIERLMSFRPICSANHKESKMTIFEKENFIGRQWEISDDYPSLQAMGWFNNEVGSMKIQSGAWVCYQYPGYRGYQYILECDHHGGDYKHWREWGSHAQTSQIQSIRRIQQ
Kd (AUC): 100 nM
stoichiometry N (AUC): 2
